From publication PMC7113858 (Journal of Virological Methods, 2017)
Where two headings read alike, the source gives them in different places.

Tests used:
[1] = molecular target: receptor-binding domain (RBD) of the SARS-CoV S protein, amino acids 318-510, histidine-tagged (SARS-CoV, strain , UniProt P59594); assay: ELISA
[2] = molecular target: T1, mouse Fc-tagged RBD of MERS-CoV (MERS-CoV, strain not named; EMC/2012 …, UniProt K0BRG7); assay: immunostaining of cells or tissue
[3] = molecular target: mouse Fc-tagged RBD of Bt-CoV-HKU5 (Bat coronavirus HKU5 (BtCoV/HKU5/2004), UniProt A3EXD0); assay: immunostaining of cells or tissue
[4] = molecular target: mouse Fc-tagged RBD of Bt-CoV-HKU4 (Bat coronavirus HKU4 (BtCoV/HKU4/2004), UniProt A3EX94); assay: immunostaining of cells or tissue
N protein of MERS-CoV = N protein of MERS-CoV (MERS-CoV, strain , UniProt K9N4V7); assay: immunostaining of cells or tissue
[5] = molecular target: T1, mouse Fc-tagged RBD of MERS-CoV
S protein of MERS-CoV = S protein of MERS-CoV (MERS-CoV, strain not named; EMC/2012 …, UniProt K0BRG7)

| Binder | binding result [1] | binding result [2] | binding result [3] | binding result [4] | binding result (N protein of MERS-CoV) | binding result [5] | binding result (S protein of MERS-CoV) |
| --- | --- | --- | --- | --- | --- | --- | --- |
| MAb 45E11 (antibody, V domains shown) VH: QVQLKESGPGLVAPSQSLSITCTVSGFSLTGFGVNWVRQPPGKGLEWLGMIWGDGGTDYNSTLKSRLSFSKDNSKSQVFLKMNSLQTDDTARYYCARAAGTGDYFDYWGQGTTLTVSS VL: DIQMTQSPASLSASVGETVTITCRASENIYSYLAWYQQKQGKSPQLLVYNAKTLAEGVPSRFSGSGSGTQFSLKINSLQPEDFGSYYCQHHYGTPWTFGGGTKLEIK | no binding | binds | no binding | no binding | no binding | – | – |
| MAb 45C2 (antibody, V domains shown) VH: QVQLKESGPGLVAPSQSLSITCTVSGFSLTGYGVNWVRQPPGKGLEWLGMIWGDGGTDYNSALKSRLSITKDNSKSQVFLKMNSLLPDDTARYYCARAAGTGDYFDYWGQGTTLTVSS VL: DIQMTQSPASLSASVGETVTITCRASENIDSYLAWYQQKQGKSPQLLVYNAKTLAEGVPSRFGGSGSGTQFSLKIYSLQPEDFGNYYCQHHYGTPWTFGGGTKLEIK | no binding | binds | no binding | no binding | no binding | – | – |
| 43A9 (antibody, V domains shown) VH: QVQLQQSGAELARPGASVKLSCNASGYIFSSYWMQWVKQRPGQGLEWIGAIYPGDGDTRYSQKFRGKATVTADKSSSTAYMQLSSLASADSAVYYCARFGDGYYYPMDYWGQGTSVTVSS VL: DIVMTQAAPSVPVTPGESVSISCRSSKSLLHSNGNTYLYWFLQRPGQSPQLLIYRMSNLASGVPDRFSGSGSGTAFTLRISRVEAEDVGVYYCMQHLEYPFTFGSGTKLEIK | – | – | – | – | – | binds | binds |
